Source: patent US6340783B1, “Rodent models of human amyloidoses” (University of Washington, priority 1992, dated 2002)

Assays:
mutated β/A4 (1-28) = target: T1, mutated β/A4 (1-28) (Homo sapiens, UniProt P05067, H684G/H685G/K687G); experiment: Affinity column with β/A4 (1-28) mutated in the putative heparin binding domain; settings: histidine, histidine and lysine changed to glycine; versus normal β/A4 (1-28) column
T1 construct: residues 1-28 of BAP or residues 597-624 of BAPP
Text: As described above, residues 12-17 of the β/A4 (-valine-histidine-histidine-glutamine-lysine-leucine-) conform to a consensus sequence for a potential heparin/heparan sulfate binding domain. This has been recently confirmed by our studies, whereby comparisons were made using column affinity chromatography. One affinity column contained β/A4 (1-28), whereas the other affinity column contained β/A4 (1-28) with three amino acid substitutions of the putative heparin binding domain (i.e. the basic amino acids histidine, histidine and lysine where changed to glycine, and therefore were now uncharged instead of basic amino acids). ^125I-HSPG bound with high affinity to normal β/A4 (1-28) affinity column, whereas a 50-60% decrease in HSPG binding to the mutated β/A4 (1-28) was observed.

[1] = target: T2, Beta-Amyloid Protein (1-28) (Homo sapiens, UniProt P05067); experiment: Competitive inhibition of 125I-labeled HSPG binding to BAP (1-28) affinity column; settings: absence of unlabeled competing ligand, n=5
T2 construct: residues 1-28 of BAP or residues 597-624 of BAPP; purchased Bachem Inc., Torrance, Calif; host or cells: synthetic peptide
Procedure: ^125I-labeled HSPGs in the presence of increasing concentrations of unlabeled GAGs, or large low density HSPG (from EHS sarcoma) were applied to an Affi-gel 10 column containing BAP (residues 1-28). After nonbound PGs were eluted from the column using TBS+0.1% TX-100, bound PGs were eluted with a step gradient using 15 ml of 1M MgCl2 in TBS+0.1% TX-100, followed by 15 ml of 4M MgCl2 in TBS+0.1% TX-100, and then 10 ml of 8M urea buffer containing 3M NaCl. […] Bars indicate standard error of the mean.
In order to test the specificity of HSPG binding to BAP (1-28), competitive inhibition experiments were also performed. 125-I labeled HSPGs (100,000-200,000 dpm) were mixed with (a) HSPG from EHS sarcoma (Mr approximately 700,000) (Kato et al., 1988) (gift of Dr. Koji Kimata, Aichi, Japan), (b) heparin from porcine intestinal mucosa (Mr˜11,000; Sigma, St. Louis, Mo.), (c) chondroitin-6-sulfate from shark cartilage (Mr˜59,000; Sigma, St. Louis, Mo.), or (d) […] dextran sulfate (Mr˜110,000; Pharmacia Fine Chemicals, Uppsala, Sweden). The samples were incubated on a rotator for 2 hours at room temperature and then applied to the BAP (1-28) column. Columns were run and eluted with step gradients (1 to 4 M MgCl2) as described above.
Purified iodinated HSPGs were combined with various concentrations of unlabeled competing ligands and applied to a BAP (1-28) affinity column (FIG. 10).

Substance: high Mr HSPG: ˜600-800 kDa heparan sulfate proteoglycan isolated from culture media of bovine aortic endothelial cells
- decrease in HSPG binding to mutated β/A4 (1-28) (mutated β/A4 (1-28)): 50-60%
- applied 125I-HSPG bound to the BAP column [1]: 21.6±4.4%
